Non-standard residues stand in square brackets, D forms with d. No end group written: not given here. pY = N[C@@H](Cc1ccc(OP(=O)(O)O)cc1)C(=O)O
Target: p110δ+p85α nicSH2 complex (human | , UniProt O00329 1-1044; P27986 322-724)
Test: cell-based or functional assay

p110δ+p85α nicSH2 complex, sequence (O00329 whole entry, stated change not applied, chain 1 of 2): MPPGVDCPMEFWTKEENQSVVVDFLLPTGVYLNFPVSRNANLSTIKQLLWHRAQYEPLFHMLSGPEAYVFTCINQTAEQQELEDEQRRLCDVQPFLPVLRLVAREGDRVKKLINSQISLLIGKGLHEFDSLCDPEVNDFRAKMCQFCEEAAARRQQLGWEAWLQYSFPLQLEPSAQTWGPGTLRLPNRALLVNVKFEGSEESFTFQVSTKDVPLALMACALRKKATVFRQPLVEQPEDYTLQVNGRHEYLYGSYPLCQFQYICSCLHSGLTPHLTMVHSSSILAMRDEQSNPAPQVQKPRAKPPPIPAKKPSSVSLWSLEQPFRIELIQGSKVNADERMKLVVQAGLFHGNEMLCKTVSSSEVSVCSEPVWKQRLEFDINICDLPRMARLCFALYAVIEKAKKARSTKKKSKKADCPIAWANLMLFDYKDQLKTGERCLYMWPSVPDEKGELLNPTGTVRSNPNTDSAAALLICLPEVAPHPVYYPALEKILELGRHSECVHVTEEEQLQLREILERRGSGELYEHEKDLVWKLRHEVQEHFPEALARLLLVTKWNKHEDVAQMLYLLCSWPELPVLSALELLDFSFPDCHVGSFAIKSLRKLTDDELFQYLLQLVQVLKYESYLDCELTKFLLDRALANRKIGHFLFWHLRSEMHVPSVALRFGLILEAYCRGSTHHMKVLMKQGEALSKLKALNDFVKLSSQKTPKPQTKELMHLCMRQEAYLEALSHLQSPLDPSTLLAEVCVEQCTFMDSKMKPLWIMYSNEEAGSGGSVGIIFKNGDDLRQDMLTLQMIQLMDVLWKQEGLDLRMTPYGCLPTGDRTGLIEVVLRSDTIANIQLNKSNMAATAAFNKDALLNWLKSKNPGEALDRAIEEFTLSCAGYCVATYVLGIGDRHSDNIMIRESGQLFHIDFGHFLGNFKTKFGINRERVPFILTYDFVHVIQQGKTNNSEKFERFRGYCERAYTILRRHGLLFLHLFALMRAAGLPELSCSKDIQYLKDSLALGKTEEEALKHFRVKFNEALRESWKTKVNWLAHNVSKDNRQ
p110δ+p85α nicSH2 complex, sequence (P27986 322-724, stated change not applied, chain 2 of 2): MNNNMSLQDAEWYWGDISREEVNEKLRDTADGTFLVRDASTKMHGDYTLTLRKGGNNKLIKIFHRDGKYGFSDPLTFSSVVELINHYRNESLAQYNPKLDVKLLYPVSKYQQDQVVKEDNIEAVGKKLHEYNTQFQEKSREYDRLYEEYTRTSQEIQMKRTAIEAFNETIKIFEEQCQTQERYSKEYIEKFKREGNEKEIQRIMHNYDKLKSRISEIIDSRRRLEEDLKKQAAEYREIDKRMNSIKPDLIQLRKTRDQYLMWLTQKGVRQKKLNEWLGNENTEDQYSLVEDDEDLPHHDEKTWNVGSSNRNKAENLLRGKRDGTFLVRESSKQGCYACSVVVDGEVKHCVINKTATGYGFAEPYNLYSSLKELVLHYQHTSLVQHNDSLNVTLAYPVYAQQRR

## ESDGG[pY]MDMSKDESID[pY]VPMLDMKGDIKYADIE [PDGFR bis-phosphorylated pY peptide (residues 735–767, with pY740 and pY751)]
  activation of the lipid kinase activity of p110δ+nicSH2 by 10 μM PDGFR pY: ~13 fold

Source: PMC3155019, “Dynamics of the Phosphoinositide 3-Kinase p110δ Interaction with p85α and Membranes Reveals Aspects of Regulation Distinct from p110α” (Structure(London, England:1993), 2011)
